Test results from US20220153839A1 (NBE THERAPEUTICS, published 2022).

Key:
[1] = target: T1, human ROR1, full length, on cells (human, UniProt Q01973 30-937); assay: flow cytometry on human cancer cell lines; 2A2 2 µg/mL; anti-human IgG (Fcγ) PE
T1 construct: whole, on cells; Ectopic on 63-12, K562, EMT-6 and HEK293 cells; also called hROR1; cell surface human ROR1
Experimental: 5×10⁵ of each cell type were added per well to 96-well plates. Plates were centrifuged (3 min, 1300 rpm) with re-suspension in buffer (PBS supplemented with 2% (v/v) of FCS). […] Plates were then incubated on ice for 30 min and washed with 200 μL of buffer prior to resuspension in 200 μL of buffer supplemented with anti-human IgG antibody (Fc gamma-specific) PE (eBioscience 12-4998-82) at a 1:250 dilution. Following 30 min incubation on ice and one washing, cells were analyzed using a FACSCalibur instrument (BD Biosciences) and data was analyzed using FlowJo analytical software (Tree Star, Ashland, Oreg.).

[2] = target: T1, human ROR1, full length, on cells; assay: cell-based or functional assay
[3] = target: T1, human ROR1, full length, on cells; assay: cell-based or functional assay; remark: listed apart in the source
[4] = target: T1, human ROR1, full length, on cells; assay: cell-based or functional assay; remark: listed apart in the source
[5] = target: T1, human ROR1, full length, on cells; assay: cell-based or functional assay; remark: listed apart in the source
[6] = target: T1, human ROR1, full length, on cells; assay: cell-based or functional assay; remark: listed apart in the source
[7] = target: T1, human ROR1, full length, on cells; assay: cell-based or functional assay; remark: listed apart in the source
[8] = target: T1, human ROR1, full length, on cells; assay: cell-based or functional assay; remark: listed apart in the source

T1 sequence (Q01973 30-937): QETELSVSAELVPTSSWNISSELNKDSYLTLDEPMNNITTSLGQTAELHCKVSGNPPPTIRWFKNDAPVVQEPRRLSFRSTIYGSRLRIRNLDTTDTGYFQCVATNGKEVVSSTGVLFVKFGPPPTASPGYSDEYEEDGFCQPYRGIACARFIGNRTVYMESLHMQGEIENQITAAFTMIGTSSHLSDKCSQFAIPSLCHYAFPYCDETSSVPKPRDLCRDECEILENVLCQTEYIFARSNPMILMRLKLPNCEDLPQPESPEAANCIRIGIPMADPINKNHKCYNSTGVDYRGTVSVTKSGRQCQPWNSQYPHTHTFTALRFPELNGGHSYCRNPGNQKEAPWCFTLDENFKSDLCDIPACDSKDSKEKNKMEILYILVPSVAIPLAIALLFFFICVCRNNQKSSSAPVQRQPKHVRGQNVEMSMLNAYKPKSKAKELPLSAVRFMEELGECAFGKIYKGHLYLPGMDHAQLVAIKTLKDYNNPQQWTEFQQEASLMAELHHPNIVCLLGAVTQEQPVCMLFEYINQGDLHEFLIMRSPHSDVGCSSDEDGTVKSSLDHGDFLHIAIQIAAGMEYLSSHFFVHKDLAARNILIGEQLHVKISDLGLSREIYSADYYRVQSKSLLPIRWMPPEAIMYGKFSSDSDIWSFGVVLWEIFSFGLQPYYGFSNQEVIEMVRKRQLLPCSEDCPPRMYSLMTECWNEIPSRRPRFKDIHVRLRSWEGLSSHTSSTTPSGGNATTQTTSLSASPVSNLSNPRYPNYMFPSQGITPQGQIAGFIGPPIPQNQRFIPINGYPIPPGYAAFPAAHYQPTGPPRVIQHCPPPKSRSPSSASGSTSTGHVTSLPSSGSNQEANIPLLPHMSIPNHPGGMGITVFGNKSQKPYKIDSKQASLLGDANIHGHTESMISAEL

Binder | binding result [1] | IC50 values on 697 cells (in vitro cell killing) [2] [µg/mL] | IC50 of in vitro cell killing, 697 cells [3] [µg/mL] | IC50 of in vitro cell killing, hROR1-overexpressing EMT-6 [4] [µg/mL] | IC50 (cell killing of Kasumi-2 cells, luminescence) [5] [µg/mL] | IC50 of in vitro cell killing, HS 578T cells (hROR1 status positive) [6] [µg/mL] | IC50 (cell killing of 697 cells, luminescence) [7] [µg/mL] | IC50 of in vitro cell killing, hROR1-overexpressing EMT-6 (clone 14) [8] [µg/mL]
2A2 (mAb066) IgG (antibody, Known anti-ROR1 antibody (WO 2010/124188), murine-human chimeric IgG1; tags HC: LPETG-Strep, LC: G5SLPETG-Strep; they may be variable domains only) heavy: not shown light: DIVMTQSQKIMSTTVGDRVSITCKASQNVDAAVAWYQQKPGQSPKLLIYSASNRYTGVPDRFTGSGSGTDFTLTISNMQSEDLADYFCQQYDIYPYTFGGGTKLEIKRTVAAPSVFIFPPSDEQLKSGTASVVCLLNNFYPREAKVQWKVDNALQSGNSQESVTEQDSKDSTYSLSSTLTLSKADYEKHKVYACEVTHQGLSSPVTKSFNRGECGGGGSLPETGGWSHPQFEK | binds |  |  |  |  |  |  | 
XBR1-402-G5-PNU antibody drug conjugate (other, Gly5-EDA-PNU joined by sortase to the LPET of the C-terminal G5SLPETG tag of the full light chain; Gly5-EDA-PNU (PNU-159682 derivative) joined by sortase to the LPET of the C-terminal LPETG tag of the full heavy chain) VH: QEQQKESGGGLFKPTDTLTLTCTASGFDISSYYMSWVRQAPGNGLEWIGAIGISGNAYYASWAKSRSTITRNTNLNTVTLKMTSLTAADTATYFCARDHPTYGMDLWGPGTLVTVSS VL: SYELTQLPSVSVSLGQTARITCEGNNIGSKAVHWYQQKPGLAPGLLIYDDDERPSGVPDRFSGSNSGDTATLTISGAQAGDEADYYCQVWDSSAYVFGGGTQLTVTG |  | 0.212 | 0.0176 | 0.0011 | 0.0012 | 1.4 | 0.0757 | 0.015
